Holding throughout (test): cell-based or functional assay
Test [1] deals with CD16 (FcgammaRIIIa) 158F/F, low affinity phenotype, on effector cells (PBMC/NK) of a human donor (human) (UniProt P08637).
Test [2] concerns the target Fcgamma-RIII receptor (CD16) on human PBMC effector cells, 158 genotype of the donor not stated (human) (UniProt P08637).
Test [3] addresses CD16 (FcgammaRIIIa) 158V/V, high affinity phenotype, on effector cells (PBMC/NK) of a human donor (human) (UniProt P08637).
Test [4] addresses CD16 (FcgammaRIIIa) 158V/V, high affinity phenotype, on effector cells (PBMC/NK) of a human donor (human, UniProt P08637 17-254).
The target in test [5] is CD16 (FcgammaRIIIa) 158F/F, low affinity phenotype, on effector cells (PBMC/NK) of a human donor (human, UniProt P08637 17-254).
Sequence of CD16 (FcgammaRIIIa) 158F/F, low affinity phenotype, on effector cells (PBMC/NK) of a human donor (P08637 17-254): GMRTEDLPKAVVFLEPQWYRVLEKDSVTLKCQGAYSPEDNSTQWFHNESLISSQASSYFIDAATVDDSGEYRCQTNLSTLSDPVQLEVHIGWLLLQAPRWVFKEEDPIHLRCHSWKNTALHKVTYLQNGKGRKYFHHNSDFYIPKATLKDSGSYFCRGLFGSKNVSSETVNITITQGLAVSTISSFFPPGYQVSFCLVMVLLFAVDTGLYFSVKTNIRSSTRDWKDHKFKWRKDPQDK
Test [6] concerns the target Fcgamma-RIII receptor (CD16) on human PBMC effector cells, 158 genotype of the donor not stated (human, UniProt P08637 17-254).

Sequence of CD16 (FcgammaRIIIa) 158V/V, high affinity phenotype, on effector cells (PBMC/NK) of a human donor (human) (P08637 17-254 F176V): as the sequence (P08637 17-254) above, with F160V counted along it
Sequence of CD16 (FcgammaRIIIa) 158V/V, high affinity phenotype, on effector cells (PBMC/NK) of a human donor (P08637 17-254 F176V): as the sequence (P08637 17-254) above, with F160V counted along it
Sequence of Fcgamma-RIII receptor (CD16) on human PBMC effector cells, 158 genotype of the donor not stated (P08637 17-254): as the sequence (P08637 17-254) above
Sequence of Fcgamma-RIII receptor (CD16) on human PBMC effector cells, 158 genotype of the donor not stated (human) (P08637 17-254): as above
Sequence of CD16 (FcgammaRIIIa) 158F/F, low affinity phenotype, on effector cells (PBMC/NK) of a human donor (human) (P08637 17-254): as above

“IGN314, glyco-engineered IGN311 variant expressed in delta-xyl-t/delta-fuc-t double knockout moss (Physcomitrella patens) (antibody)”: in test [1], the EC50 of ADCC lysis (51Cr release), OVCAR-3 target cells, CD16158 F/F effector cells came to 0.025 µg/mL and the Enhancement (ADCC EC50 of IGN311 against IGN314), OVCAR-3, F/F effector cells was 40 fold. In test [2], this molecule registered an EC50 of ADCC lysis of SK-BR-3 cells by human PBMC in 10% FCS of 0.052 µg/mL and an EC50 of ADCC lysis of SK-BR-3 cells by human PBMC in 40% NHS of 0.126 µg/mL. Besides, in test [3], the EC50 of ADCC lysis (51Cr release), OVCAR-3 target cells, CD16158 V/V effector cells worked out at 0.008 µg/mL; the EC50 of ADCC lysis (51Cr release), SK-BR-3 target cells, CD16158 V/V effector cells is 0.144 µg/mL; the EC50 of ADCC lysis (51Cr release), TF-1 target cells, CD16158 V/V effector cells was 0.366 µg/mL; the Enhancement (ADCC EC50 of IGN311 against IGN314), OVCAR-3, V/V effector cells was 39 fold. Further, in test [3], the Enhancement (ADCC EC50 of IGN311 against IGN314), SK-BR-3, V/V effector cells amounted to 7 fold and the Enhancement (ADCC EC50 of IGN311 against IGN314), TF-1, V/V effector cells was found to be 15 fold.

B1: IGN311, humanized monoclonal IgG anti-Lewis Y antibody (parental, expressed in SP 2.0 cells) (antibody, V domains shown)
VH: EVQLLESGGGLVQPGGSLRLSCAASGFTFSDYYMYWVRQAPEKRLEWVAYISNGGGSSHYVDSVKGRFTISRDNSKNTLYLQMNSLRAEDTALYHCARGMDYGAWFAYWGQGTLVTVSS
VL: DIVMTQSPLSLPVTPGEPASISCRSSQSIVHSNGNTYLEWYLQKPGQSPQLLISKVSNRFSGVPDRFSGSGSGTDFTLKISRVEAEDVGVYYCFQGSHVPFTFGQGTKLEIK
modifications: N-glycan at Asn297 almost completely core-fucosylated, with terminal galactosylation; C-terminal lysine of the heavy chain partly present (both SLSLSPG and SLSLSPGK detected)
B1: in test [4], the “EC50 of ADCC lysis (51Cr release), OVCAR-3 target cells, CD16158 V/V effector cells” value is 0.315 µg/mL; the “EC50 of ADCC lysis (51Cr release), SK-BR-3 target cells, CD16158 V/V effector cells” value is 1.04 µg/mL; the “EC50 of ADCC lysis (51Cr release), TF-1 target cells, CD16158 V/V effector cells” value stood at 5.32 µg/mL. The “EC50 of ADCC lysis (51Cr release), OVCAR-3 target cells, CD16158 F/F effector cells” value in test [5] worked out at 0.993 µg/mL. In test [6], the “EC50 of ADCC lysis of SK-BR-3 cells by human PBMC in 10% FCS” value came to 0.301 µg/mL and the “EC50 of ADCC lysis of SK-BR-3 cells by human PBMC in 40% NHS” value was 1.56 µg/mL.

For the origin of these results see patent US9051577 (GREENOVATION BIOTECH, dated 2015).
